Changes are numbered by the printed parent chain.

Assay [1] has as its target Cy.004 Fab:CyRPA complex, formed beforehand and purified by SEC (Plasmodium falciparum (3D7 clone) | …, UniProt Q8IFM8 29-362). Put plainly: SPR; TBS+P20, 1 mM CaCl2.
For assay [2], the target named is Cy.009 Fab:CyRPA complex, formed beforehand and purified by SEC (Plasmodium falciparum (3D7 clone) | …, UniProt Q8IFM8 29-362). Put plainly: SPR; TBS+P20, 1 mM CaCl2.
In assay [3] the target is T1, Cy.002 Fab:CyRPA complex, formed beforehand and purified by SEC (Plasmodium falciparum (3D7 clone) | …, UniProt Q8IFM8 29-362). Briefly: SPR; TBS+P20, 1 mM CaCl2.
Assay [4] concerns the target T1, Cy.002 Fab:CyRPA complex, formed …. Put plainly: SPR; PBS+P20.
For assay [5], the target named is Cy.003 Fab:CyRPA complex, formed beforehand and purified by SEC (Plasmodium falciparum (3D7 clone) | …, UniProt Q8IFM8 29-362). Briefly: SPR; PBS+P20.
The target in assay [6] is Cy.007 Fab:CyRPA complex, formed beforehand and purified by SEC (Plasmodium falciparum (3D7 clone) | …, UniProt Q8IFM8 29-362). Put plainly: SPR; PBS+P20.

B1: Cy.003, chimeric anti-CyRPA monoclonal antibody (chicken variable domains, human IgG1) (antibody, V domains shown)
VH: AVTLDESGGGLQTPGGALSLVCKGSGFFSFSSYTMQWVRQAPGKGLEWVASISSGGGTNYGAAVKGRATISRDNGQSTLRLQLNNLRAEDTGTYYCAKHGVNGCDWSYSVGCVDAWGHGTEVIVSS
VL: RCALTQPSSVSANPGETVKITCSGGSSSYYGWYQQKSPGSAPVTLIYNNQKRPSDIPSRFSGSKSGSTGTLTITGVQAEDEAVYFCGSRDNSGGIFGAGTTLTVL
As to B1, the Kd in assay [1] is 13 nM; in assay [2], 8.6 nM; in assay [3] it was 77 nM. In assay [3], this molecule registered an off-rate constant (koff) of 0.0048 s⁻¹.

B2: Cy.009, chimeric anti-CyRPA monoclonal antibody (chicken variable domains, human IgG1) (antibody, V domains shown)
VH: AVTLDESGGGLQTPGGALSLVCKASGFTFSDYAMGWVRQAPGKGLEYVAGIKSDGSFTLYGSTVKGRATISRDNGQSIVRLQLNNLRAEDTGTYYCAKSDDNGGHYSDFSGEIDAWGHGTEVIVSS
VL: RCALTQPSSVSANPGETVKITCSGSSYSYGWYQQKSPGSAPVTVIYYNDKRPSDIPSRFSGSKSGSTGTLTITGVQAEDEAVYFCGNSDSRNAAFGAGTTLTVL
B2: the values for the Kd in assay [4], in assay [5] and in assay [6] were 1500 nM, 260 nM and 2100 nM, respectively. In addition, in assay [4], the koff came out at 0.17 s⁻¹.

B3: Cy.004, chimeric anti-CyRPA monoclonal antibody (chicken variable domains, human IgG1) (antibody, V domains shown)
VH: AVTLDESGGGLQTPGGALSLVCKASGFDFSSYAMGWVRQAPGKGLEYVAGIRNDGSFTLYTPAVKGRATISRDNGQSTVRLQLNNLRAEDTATYFCTKSADDGGHYSDFSGEIDAWGHGTEVIVSS
VL: B2 VL with S26T, S28N, F84Y, A93V
Regarding B3, the Kd came out at 1800 nM in assay [4], 410 nM in assay [5] and 390 nM in assay [6]. For the same molecule, in assay [4], the koff came out at 0.39 s⁻¹.

B4: Cy.007, chimeric anti-CyRPA monoclonal antibody (chicken variable domains, human IgG1) (antibody, V domains shown)
VH: AVTLDESGGGLQTPGGTLSLVCKGSGFTFSSYEMQWVRQAPGKGLEWVADICIGGSYTGYGPAVKGRATISRDDGQSTVRLQLNNLRAEDTGTYYCAKTARSDYCITGLDDIDAWGHGTEVIVSS
VL: RCALTQPSSVSANPGETVKITCSGGSSDYGWYQQKSPGSAPVTVIYENNKRPSDIPSRFSGSKFGSTHTLTITGVQADDEAVYFCGSRDTNNGAFGAGTTLTVL
Take B4: the Kd in assay [1] was determined as 1.6 nM; in assay [2] it was 2.6 nM; in assay [3], 11 nM. The molecule also displayed a dissociation rate constant (koff) in assay [3] of 0.0024 s⁻¹.

For the origin of these results see publication PMC8854392 (2022).
